Assay results: patent US20140072558A1 (ANTIBODY AND RECEPTOR THERAPEUTICS, published 2014)

B1: DLK1B09 (scFv, V domains shown)
VH: QMQLVESGGRLVRPGGSLRLSCAASGFPFTSYAMNWVRQTPGKGLEWVSTITATSGKTYYADSVKGRFTISRDNSRNTLFLQMNSLRAEDTAVYYCVRGESCSGGACSDFDYWGQGALVTVSS
VL: QLVLTQPASVSGSPGQSVTISCTGTSSDIGRYNRVSWYQHHPGKAPKLILNDVTTRPSGFSNRFSGSKSGNTASLTISGLQAEDEADYSCGSYAGSYTYVFGTGTKVTVL
notes: Monoclonal scFv on phage; VH3-23, V1-4; also called B09 (phage clone)
B2: ACVR1A-Fc (Fc fusion, UniProt Q04771 21-123, looked up)
chain: MEDEKPKVNPKLYMCVCEGLSCGNEDHCEGQQCFSSLSINDGFHVYQKGCFQVYEQGKMTCKTPPSPGQAVECCQGDWCNRNITAQLPTKGKSFPGTQNFHLE
notes: Control protein; not shown: Fc
B3: DLK1A10 (scFv, V domains shown)
VH: QVQLVESGGGLVQPGRSLRLSCAASGFTFDDYAMHWVRQAPGKGLEWVSGISWNSGSIGYADSVKGRFTISRDNAKNSLYLQMNSLRAEDTAVYYCARGPGLATGKGYADYWGQGTLVTVSS
VL: DIQMTQSPSSVSASVGDRVTITCRASQRISSWLAWYQQKPGRAPKLLIHSASTLHNGVPSRFSGSASGTDFTLTISSLQPEDYAIYYCQQGHSFPYTFGQGTKLEIK
notes: Monoclonal scFv on phage; VH3-9
B4: DLK1A05 (scFv, V domains shown)
VH: QMQLVESGGGLVQPGRSLRLSCAASGFTFDEHAMHWVRQAPGKGLEWVSGINWNSGKTGYADSVKGRFTISRDNGKNSLYLQMNSLRAEDTAVYYCAKSGGYGGNTNWYFDLWGRGTLVTVSS
VL: QFVLTQPPSVSGAPGQNVTISCIGTSSNIGVGYDVHWYQQVPGTAPKLLVYGNNNRPSGVPDRFSGSKSGTSASLAITGLQAEDEADYYCQSYDSRLGVVFGGGTKLTVL
notes: Monoclonal scFv on phage; VH3-9, V1-13
B5: DLK1A04 (scFv, V domains shown)
VH: QVQLVESGAEVKKPGASVKVSCKASGYTFKDYAIHWVRQAPGQRLEWMGWINPGSGNTKYSHNFEGRVILTRDASANTAYLELPSLRSEDTAVYYCARSVSAYGSNYFDPWGQGTLITVSS
VL: DIQMTQSPSSLSASVGDRVTITCQASQDISNYLNWYQQKPGKAPKLLIYSTSNLQSGVPSRFSGSGSGTDFTLTISSLQPEDFATYYCQQLNSYPLTFGGGTKVDIK
notes: Monoclonal scFv on phage; VH1-3, L8
B6: DLK1-Fc fusion protein (Fc fusion)
chain: ECFPACNPQNGFCEDDNVCRCQPGWQGPLCDQCVTSPGCLHGLCGEPGQCICTDGWDGELCDRDVRACSSAPCANNGTCVSLDDGLYECSCAPGYSGKDCQKKDGPCVINGSPCQHGGTCVDDEGRASHASCLCPPGFSGNFCEIVANSCTPNPCENDGVCTDIGGDFRCRCPAGFIDKTCSRPVTNCASSPCQNGGTCLQHTQVSYECLCKPEFTGLTCVKKRALSPQQVTRLPSGYGLAYRLTPGVHELPVQQPEHRILKVSMKELNKKTPLLTEG
notes: Water-soluble DLK1 joined to a human antibody Fc region; also called DLK1-Fc-FITC; not shown: human antibody Fc region
B7: DLK1H12 (scFv, V domains shown)
VH: QVQLVQSGGGLVKPGGSLRLSCAASEFTFSDYYMSWVRQAPGKGLEWLSYISGSGITTYYADSVKGRFTISRDNGKKSLYLEMNSLRAEDTAVYYCARLQGHCSGGACSNWFDAWGQGTLITVSS
VL: DIQMTQSPSSLSASVGDRLTITCRASQSILTYLNWYQQKPGKAPKLLIYAASSLQRGVPSRFSGSGSGTDFTLTISGLQPEDFATYYCQQGYGTPYTFGQGTKVDIK
notes: Monoclonal scFv on phage; VH3-11, O12
B8: activin A (ligand, UniProt P08476 311-426, looked up)
chain: GLECDGKVNICCKKQFFVSFKDIGWNDWIIAPSGYHANYCEGECPSHIAGTSGSSLSFHSTVINHYRMRGHSPFANLKSCCVPTKLRPMSMLYYDDGQNIIKKDIQNMIVEECGCS
notes: also called ligand of ACVR2B
B9: DLK1H06 (scFv, V domains shown)
VH: QVQLVQSGGGLIQPGGSLRLSCAASGFTFSLYGMSWVRQAPGKGLEWVSSIPGSGTRTHYADSVKGRFTISRDNSKNTLFLQMNSLRAEDTAVYYCAKSTAYLFDYWGPGTLVTVSS
VL: DIQMTQSPATLSLSPGERATLSCRASQSIRHYLAWYQQKPGQAPRLLIHGASSRATGIPDRFSGSGSGTDFTLTISRLEPEDFAVYYCQHYGSPLHSFGPGTKVEIK
notes: Monoclonal scFv on phage; VH3-23, A27
B10: ACVR2B-Fc (Fc fusion, UniProt Q13705 19-137, looked up)
chain: SGRGEAETRECIYYNANWELERTNQSGLERCEGEQDKRLHCYASWRNSSGTIELVKKGCWLDDFNCYDRQECVATEENPQVYFCCCEGNFCNERFTHLPEAGGPEVTYEPPPTAPTLLT
notes: extracellular domain; Prepared by attaching Fc to an extracellular part of ACVR2B; not shown: Fc

How the values were obtained:
DLK1-Fc fusion protein [1] = molecular target: B6; test: scFv-phage ELISA; OD on DLK1 divided by OD on a-myc
activin A = molecular target: B8; test: ELISA: activin A coated 50 ng/ml
Procedure: To examine whether water-soluble DLK1 competitively bind to the ACVR2B receptor with activin A, enzyme immunoassay was performed. 50 ng/ml of activin A was coated and reacted with ACVR2B-Fc and FLAG-DLK1, and then the binding was detected. Here, ACVR2B was fixed to a concentration of 2 nM, FLAG-DLK1 was treated to have a concentration of 1 to 16 nM, and then a degree of competitive binding was measured. As controls, Fc and ACVR1A-Fc not binding to activin A were used.

[2] = molecular target: T1, activin receptor type II B (ACVR2B) expressed in cells (UniProt Q13705 19-512, limits assumed); test: flow cytometry, 1 ug DLK1-Fc-FITC on 293E cells
T1 construct: whole, on cells; also called ACVR2B-overexpressed cell line
Procedure: To confirm binding between water-soluble DLK1 and ACVR2B on actual cells, an experiment was performed using flow cytometry. The experiment was performed using CantoII (BD), and an experiment method was summarized as follows. […] The harvested cells were washed with cold DPBS twice, 1 μg of DLK1-Fc-FITC was added to react at 4° C. for 2 hours. DLK1-Fc-FITC used in the reaction was manufactured using a protein FITC labeling kit (Pierce). After the reaction, washing with 1% PBA (1% BSA in DPBS) buffer was performed, a degree of binding was determined by flow cytometry, and the results are shown in FIG. 15. In addition, the cells used above were subjected to western blotting to confirm the expression of ACVR2B (FIG. 14).

DLK1-Fc fusion protein [3] = molecular target: B6; test: ELISA: activin A coated, DLK1-Fc added
[4] = molecular target: T2, FLAG-tagged water-soluble DLK1 (Homo sapiens (Human), UniProt P80370 25-302); test: ELISA
T2 construct: also called FLAG-DLK1; not shown: FLAG tag
T2 sequence: B6 chain
Procedure: (§1) Binding between ACVR2B and water-soluble DLK1 was confirmed by enzyme immunoassay (ELISA). To this end, 1 μg/ml of FLAG-tagged water-soluble DLK1 was coated on an immunoplate (Nunc) at 4° C. for 16 hours. Here, as a control for detecting non-specific binding, BSA was used. The coated plate was washed with PBST (0.05% Tween 20) three times, and blocked with 5% skim milk PBST. ACVR2B-Fc prepared by attaching Fc to an extracellular part of ACVR2B was subjected to serial dilution, and reacted at room temperature for 1 hour. After the reaction, the cells were washed with PBST (0.05% Tween 20) three times, and […] (1:5000) was incubated for 1 hour to measure a binding degree. After the reaction, the cells were washed with PBST (0.05% Tween 20) three times, a color reaction was performed using TMB (Sigma), and 2.5 M H₂SO₄ was added to stop the reaction. And then optical density was measured at 450 nm.

BSA = BSA (UniProt P02769 25-607); test: ELISA: BSA coated as control for non-specific binding, ACVR2B-Fc serially diluted, anti-human IgG-HRP
Procedure: as §1

BSA, sequence (P02769 25-607 limits assumed): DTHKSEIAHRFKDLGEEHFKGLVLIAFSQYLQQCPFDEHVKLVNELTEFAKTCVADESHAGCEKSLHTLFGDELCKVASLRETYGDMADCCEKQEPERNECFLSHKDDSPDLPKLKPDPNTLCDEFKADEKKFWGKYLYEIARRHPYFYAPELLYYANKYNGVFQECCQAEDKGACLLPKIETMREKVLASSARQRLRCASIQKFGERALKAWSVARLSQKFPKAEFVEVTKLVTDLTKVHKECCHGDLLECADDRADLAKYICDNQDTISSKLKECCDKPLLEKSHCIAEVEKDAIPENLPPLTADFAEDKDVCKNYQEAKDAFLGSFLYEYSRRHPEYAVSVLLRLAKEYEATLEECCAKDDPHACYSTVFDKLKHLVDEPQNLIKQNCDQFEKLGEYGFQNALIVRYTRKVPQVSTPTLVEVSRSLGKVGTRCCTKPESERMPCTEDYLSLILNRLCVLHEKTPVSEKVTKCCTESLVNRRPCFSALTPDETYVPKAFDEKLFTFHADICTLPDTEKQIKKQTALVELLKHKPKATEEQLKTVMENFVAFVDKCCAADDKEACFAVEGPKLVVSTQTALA

Row | Binder | Ratio (DLK1-Fc fusion protein [1]) | further results
1 | B1 | 25.3 | 
2 | B2 |  | binding result (activin A): no binding
3 | B3 | 2.21 | 
4 | B4 | 3.81 | 
5 | B5 | 6.15 | 
6 | B6 |  | binding result [2]: binds
7 | B7 | 4.75 | 
8 | B8 |  | binding result (DLK1-Fc fusion protein [3]): no binding
9 | B9 | 2.47 | 
10 | B10 |  | binding result [4]: binds; binding result (BSA): no binding
